In publication PMC8357417, “CTP and parS coordinate ParB partition complex dynamics and ParA-ATPase activation for ParABS-mediated DNA partitioning” (eLife, 2021):

Tests used:
[1] = target: T1, ParAF (F-plasmid (E. coli)) (UniProt P62556)
T1 sequence: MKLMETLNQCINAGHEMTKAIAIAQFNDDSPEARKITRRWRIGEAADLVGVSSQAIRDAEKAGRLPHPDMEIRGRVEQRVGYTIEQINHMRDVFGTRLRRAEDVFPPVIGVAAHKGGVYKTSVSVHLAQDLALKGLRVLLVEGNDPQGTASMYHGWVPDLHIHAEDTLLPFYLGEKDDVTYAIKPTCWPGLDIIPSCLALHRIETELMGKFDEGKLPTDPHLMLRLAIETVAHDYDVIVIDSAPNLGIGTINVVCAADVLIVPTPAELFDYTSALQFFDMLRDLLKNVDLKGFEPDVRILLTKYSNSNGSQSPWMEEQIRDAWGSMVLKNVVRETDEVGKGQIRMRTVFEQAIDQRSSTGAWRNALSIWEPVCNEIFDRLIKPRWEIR

[2] = target: T1, ParAF (F-plasmid (E. coli)); remark: listed apart in the source
EcoRI (Escherichia coli) = EcoRI (Escherichia coli) (UniProt P00642); settings: cited from earlier work
ParAF-eGFP [3] = target: T2, ParAF-eGFP (F-plasmid (E. coli), UniProt P62556 1-388); test: TIRF microscopy of fluorescent proteins on an nsDNA carpet; as a1, but the wash buffer contained ATPgammaS and 10 uM ParBF^1-42-mCherry or ParBF^(1-42 R36A)-mCherry; apparent rate constants; settings: both partners purified
T2 construct: ParA ATPase of the F plasmid (ParAF, also called SopA); SGGG linker between ParAF and eGFP; concentrations and ratios are per monomer; also called SopA; source: E. coli BL21 DE3 AI, purified (HisTrap, Mono Q, S200 size exclusion)
T2 sequence (looked up): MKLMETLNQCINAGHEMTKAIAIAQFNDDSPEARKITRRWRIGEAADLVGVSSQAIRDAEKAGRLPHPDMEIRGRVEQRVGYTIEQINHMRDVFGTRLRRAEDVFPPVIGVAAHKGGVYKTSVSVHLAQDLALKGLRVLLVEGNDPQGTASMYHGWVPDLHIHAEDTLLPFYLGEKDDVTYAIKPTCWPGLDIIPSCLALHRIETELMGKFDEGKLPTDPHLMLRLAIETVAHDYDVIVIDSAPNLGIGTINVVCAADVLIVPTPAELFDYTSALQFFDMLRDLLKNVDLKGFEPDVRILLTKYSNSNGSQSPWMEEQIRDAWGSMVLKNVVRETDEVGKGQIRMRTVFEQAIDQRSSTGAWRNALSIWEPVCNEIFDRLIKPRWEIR

ParAF-eGFP [4] = target: T2, ParAF-eGFP; test: TIRF microscopy of fluorescent proteins on an nsDNA carpet; ParAF-eGFP (1 uM) and labelled ParBF variant (2 uM, or 10 uM for the 1-42-mCherry fusions) preincubated 10 min at room temperature with 1 mM ATPgammaS, infused over an nsDNA carpet, then washed with buffer containing ATPgammaS; no parSF, no C-nucleotide; 300 mM K-glutamate TIRFM buffer pH 7.5; apparent rate constants; settings: both partners purified
ParAF-eGFP [5] = target: T2, ParAF-eGFP; test: as above; settings: both partners purified; remark: listed apart in the source
[6] = substrate: Nc1ccn([C@@H]2O[C@H](COP(=O)(O)OP(=O)(O)OP(=O)(O)O)[C@@H](O)[C@H]2O)c(=O)n1; test: phosphate release, MESG/purine nucleoside phosphorylase (EnzChek), initial rates; assay type: biochemical, Escherichia coli; settings: no parSF DNA, 0.84 μM ParBF, 2 mM MgCl2, 100 mM NaCl, pH 7.5
[7] = target: the molecule itself; test: FRET or BRET; ParBF labelled with Alexa 488 or Alexa 594 mixed at equal concentrations, FRET efficiency in a plate reader; monomer to dimer; apparent KD
ParAF-eGFP [8] = target: T2, ParAF-eGFP; test: TIRF microscopy of fluorescent proteins on an nsDNA carpet; as a5, with CTP (2 mM) and the 24 bp parSF fragment (1.1 uM); apparent rate constants; settings: both partners purified
ParAF-eGFP [9] = target: T2, ParAF-eGFP; test: TIRF microscopy of fluorescent proteins on an nsDNA carpet; as a1, with the 24 bp parSF DNA fragment (1.1 uM) in the sample; apparent rate constants; settings: both partners purified
ParAF-eGFP [10] = target: T2, ParAF-eGFP; test: TIRF microscopy of fluorescent proteins on an nsDNA carpet; as a6, with CDP instead of CTP, with the 24 bp parSF fragment (1.1 uM); apparent rate constants; settings: both partners purified
ParAF-eGFP [11] = target: T2, ParAF-eGFP; test: TIRF microscopy of fluorescent proteins on an nsDNA carpet; as a1, with ATPgammaS (1 mM) and CTP (2 mM), no parSF; wash with ATPgammaS and CTP; apparent rate constants; settings: both partners purified

**Q.** With ParBF^1-42-mCherry-EcoRI^E111Q as the molecule, how does the ParAF-ATPase stimulation against ParBF^1-42-mCherry-EcoRI^E111Q concentration: KA (apparent total concentration for half-maximum stimulation); pBR322 nsDNA + EcoRI DNA fragment [1] read?
**A.** 0.16 µM

**Q.** What about the ParAF-ATPase stimulation against ParBF^1-42-mCherry-EcoRI^E111Q concentration: KA (apparent total concentration for half-maximum stimulation); pBR322 nsDNA + Scram DNA [1] of the same molecule?
**A.** 0.16 µM

**Q.** And the ParAF-ATPase stimulation against ParBF^1-42-mCherry-EcoRI^E111Q concentration: K (half) [2]?
**A.** 0.15 µM

**Q.** With EcoRI (from UniProt P00642) as the molecule, how does the Kd (EcoRI (Escherichia coli)) read?
**A.** < 0.02 nM

B1: ParBF^1-42-mCherry (domain or fragment, F-plasmid (E. coli))
chain: MKRAPVIPKHTLNTQPVEDTSLSTPAAPMVDSLIARVGVMAR
notes: ParBF^1-42 fused to the N-terminus of mCherry through an SGGG linker; His6 at the C-terminus of the fusion; Monomer by gel filtration; also called monomeric ParBF^1-42-mCherry; source: E. coli BL21 DE3 AI, purified (HisTrap after lysis in 6 M guanidinium chloride, S200 size exclusion); not shown: mCherry, C-terminal, kept
**Q.** For B1, which ParAF-ATPase stimulation against ParBF^1-42 concentration: KA (apparent total concentration for half-maximum stimulation); pBR322 nsDNA [1] is on record?
**A.** 1.2 µM

**Q.** What about the “apparent koff from the nsDNA carpet together with ParAF, ParBF^1-42-mCherry in the wash (ParBF signal)” value (ParAF-eGFP [3]) of the same molecule?
**A.** 0.89 min⁻¹

**Q.** And the koff (ParAF-eGFP [4])?
**A.** 0.105 s⁻¹

**Q.** What about the “stoichiometry N” value (ParAF-eGFP [4]) of the same molecule?
**A.** 1.27 ParBF per ParAF (A:B ratio, monomers)

B2: ParBF^(1-42 R36A)-mCherry (domain or fragment, F-plasmid (E. coli))
chain: MKRAPVIPKHTLNTQPVEDTSLSTPAAPMVDSLIAAVGVMAR
notes: SGGG linker between ParBF^(1-42 R36A) and mCherry; His6 at the C-terminus of the fusion; source: E. coli BL21 DE3 AI, purified (HisTrap after lysis in 6 M guanidinium chloride, S200 size exclusion); not shown: mCherry, C-terminal, kept
**Q.** With B2 as the molecule, how does the ParAF-ATPase stimulation against ParBF^(1-42 R36A) concentration: KA (apparent total concentration for half-maximum stimulation); pBR322 nsDNA [1] read?
**A.** 108 µM

**Q.** What about the “apparent koff from the nsDNA carpet together with ParAF, ParBF^(1-42 R36A)-mCherry in the wash (ParBF signal)” value (ParAF-eGFP [3]) of the same molecule?
**A.** 1.8 min⁻¹

**Q.** And the “stoichiometry N” value (ParAF-eGFP [3])?
**A.** 0.92 ParBF per ParAF (A:B ratio, monomers)

**Q.** What about the “steady-state density on the DNA carpet relative to ParBF^1-42-mCherry” value (ParAF-eGFP [5]) of the same molecule?
**A.** < 10%

**Q.** And the koff (ParAF-eGFP [4])?
**A.** 0.867 s⁻¹

B3: ParBF (Escherichia coli K-12) (protein)
chain: MKRAPVIPKHTLNTQPVEDTSLSTPAAPMVDSLIARVGVMARGNAITLPVCGRDVKFTLEVLRGDSVEKTSRVWSGNERDQELLTEDALDDLIPSFLLTGQQTPAFGRRVSGVIEIADGSRRRKAAALTESDYRVLVGELDDEQMAALSRLGNDYRPTSAYERGQRYASRLQNEFAGNISALADAENISRKIITRCINTAKLPKSVVALFSHPGELSARSGDALQKAFTDKEELLKQQASNLHEQKKAGVIFEAEEVITLLTSVLKTSSASRTSLSSRHQFAPGATVLYKGDKMVLNLDRSRVPTECIEKIEAILKELEKPAP
notes: full-length, C-terminal hexa-histidine tag kept, expressed in E. coli BL21 DE3 AI (plasmid pX8); dimer
**Q.** Which results are given for B3?
**A.** Km [6]: ~8 µM; kcat [6]: ~14 h⁻¹

B4: ParBF (full-length), ParBF-Alexa647 (natural protein, F-plasmid (E. coli), UniProt P62558 1-323, looked up)
chain: MKRAPVIPKHTLNTQPVEDTSLSTPAAPMVDSLIARVGVMARGNAITLPVCGRDVKFTLEVLRGDSVEKTSRVWSGNERDQELLTEDALDDLIPSFLLTGQQTPAFGRRVSGVIEIADGSRRRKAAALTESDYRVLVGELDDEQMAALSRLGNDYRPTSAYERGQRYASRLQNEFAGNISALADAENISRKIITRCINTAKLPKSVVALFSHPGELSARSGDALQKAFTDKEELLKQQASNLHEQKKAGVIFEAEEVITLLTSVLKTSSASRTSLSSRHQFAPGATVLYKGDKMVLNLDRSRVPTECIEKIEAILKELEKPAP
modifications: Alexa Fluor 647 C2 maleimide label (DNA-carpet TIRFM assays); Alexa 488 or Alexa 594 label (FRET dimerisation assay)
notes: ParB of the F plasmid (ParBF, also called SopB); One molecule for the same construct with different dyes; ATPase and magnetic-tweezers results are printed for 'ParBF' without a dye; concentrations and ratios are per monomer; also called Alexa647-ParBF; WT ParBF; source: E. coli BL21 DE3 AI, purified (HisTrap, Mono S, S200 size exclusion)
**Q.** With B4 as the molecule, how does the Kd [7] read?
**A.** ~18.5 nM

**Q.** And the “apparent koff of the ParAF-ParBF complex from the nsDNA carpet (ParBF signal), with CTP and parSF” value (ParAF-eGFP [8])?
**A.** 0.83 min⁻¹

**Q.** What about the “stoichiometry N” value (ParAF-eGFP [8]) of the same molecule?
**A.** 2.16 ParBF per ParAF (A:B ratio, monomers)

**Q.** And the “apparent koff of the ParAF-ParBF complex from the nsDNA carpet (ParBF signal), with parSF” value (ParAF-eGFP [9])?
**A.** 0.82 min⁻¹

**Q.** And the “stoichiometry N” value (ParAF-eGFP [9])?
**A.** 2.17 ParBF per ParAF (A:B ratio, monomers)

**Q.** And the “apparent koff of the ParAF-ParBF complex from the nsDNA carpet (ParBF signal), with CDP and parSF” value (ParAF-eGFP [10])?
**A.** 0.53 min⁻¹

**Q.** And the “stoichiometry N” value (ParAF-eGFP [10])?
**A.** 2.53 ParBF per ParAF (A:B ratio, monomers)

**Q.** What about the “apparent koff of the ParAF-ParBF complex from the nsDNA carpet (ParBF signal), with CTP” value (ParAF-eGFP [11]) of the same molecule?
**A.** 0.65 min⁻¹

**Q.** And the “stoichiometry N” value (ParAF-eGFP [11])?
**A.** 2.16 ParBF per ParAF (A:B ratio, monomers)

**Q.** What about the “apparent koff of the ParAF-ParBF complex from the nsDNA carpet (ParBF signal)” value (ParAF-eGFP [4]) of the same molecule?
**A.** 0.89 min⁻¹

**Q.** And the “stoichiometry N” value (ParAF-eGFP [4])?
**A.** 1.1 ParBF per ParAF (A:B ratio, monomers)

B5: ParBF^R121A (natural protein, F-plasmid (E. coli), UniProt P62558 1-323, looked up)
chain: MKRAPVIPKHTLNTQPVEDTSLSTPAAPMVDSLIARVGVMARGNAITLPVCGRDVKFTLEVLRGDSVEKTSRVWSGNERDQELLTEDALDDLIPSFLLTGQQTPAFGRRVSGVIEIADGSARRKAAALTESDYRVLVGELDDEQMAALSRLGNDYRPTSAYERGQRYASRLQNEFAGNISALADAENISRKIITRCINTAKLPKSVVALFSHPGELSARSGDALQKAFTDKEELLKQQASNLHEQKKAGVIFEAEEVITLLTSVLKTSSASRTSLSSRHQFAPGATVLYKGDKMVLNLDRSRVPTECIEKIEAILKELEKPAP
modifications: Alexa Fluor 647 C2 maleimide label (fluorescently labeled ParBF^R121A)
notes: ParB of the F plasmid (ParBF, SopB) with R121A in the Box II region of the CTPase domain; ATPase results are printed without a dye; also called Box II mutant ParBF^R121A; source: E. coli BL21 DE3 AI, purified (HisTrap, Mono S, S200 size exclusion)
**Q.** Which “apparent koff of the ParAF-ParBF^R121A complex from the nsDNA carpet (ParBF signal), with parSF” value (ParAF-eGFP [9]) does the source give for B5 here?
**A.** 0.78 min⁻¹

**Q.** What about the “stoichiometry N” value (ParAF-eGFP [9]) of the same molecule?
**A.** 1.12 ParBF per ParAF (A:B ratio, monomers)

**Q.** What about the “apparent koff of the ParAF-ParBF^R121A complex from the nsDNA carpet (ParBF signal)” value (ParAF-eGFP [4]) of the same molecule?
**A.** 0.78 min⁻¹

**Q.** And the “stoichiometry N” value (ParAF-eGFP [4])?
**A.** 0.99 ParBF per ParAF (A:B ratio, monomers)
